Experimental data as given in patent US20090285798A1 (COMMISSARIAT A L ENERGIE ATOMIQUE, published 2009).

Key:
[1] = molecular target: HIV-1 isolate 77 envelope (HIV-1); experiment: cell-based or functional assay
NL4.3 env = NL4.3 env (HIV-1 groupM); experiment: cell-based or functional assay
gp120SF162 [2] = molecular target: T1, gp120SF162 (HIV-1, UniProt P19550 32-502); experiment: fluorescence polarization competition: 6 nM gp120SF162, 1 nM fluorescein-CD4M33
T1 construct: domain: gp120
Excerpt: (§1) Binding assays by fluorescence anisotropy were made in a LJL Analyst (LJL BIOSYSTEMS) microplate reader using 384-wells plates.

gp120 SF2 [3] = molecular target: T2, gp120 SF2 (HIV-1, UniProt P03378 32-509); experiment: fluorescence anisotropy, 0.5 nM CD4M47-F titrated with gp120
T2 construct: domain: gp120

gp120SF162 [4] = molecular target: T1, gp120SF162; experiment: as above
gp120 Bal [5] = molecular target: T3, gp120 Bal (HIV-1); experiment: as above
T3 construct: domain: gp120

gp120 IIIB [6] = molecular target: T4, gp120 IIIB (HIV-1); experiment: as above
T4 construct: domain: gp120

gp120YU2 = molecular target: T5, gp120YU2 (HIV-1, UniProt P35961 32-498); experiment: as above
T5 construct: domain: gp120

gp120 Bal [7] = molecular target: T3, gp120 Bal; experiment: fluorescence anisotropy, ratio of the Kd values of Table I (lower end falls on Bal)
gp120SF162 [8] = molecular target: T1, gp120SF162; experiment: fluorescence anisotropy, ratio of the Kd values of Table I (upper end falls on SF162)
gp120 Bal [9] = molecular target: T3, gp120 Bal; experiment: fluorescence anisotropy, Alexa-488-labelled mini-protein (0.5 nM) titrated with gp120 in solution
Description: as §1
(§2) Direct binding assays of fluorescent peptides were performed in triplicates by adding 10 μL of 0.5 nM Alexa-labeled mini-proteins and 10 μL of serial dilutions (two-thirds dilutions in 16 wells, starting at 200 nM) of gp120 SF2, SF162, BaL, IIIB and YU2. Collected data were fitted to the following equation using a non-linear regression program (Prism, GraphPad software Inc.):

gp120 IIIB [10] = molecular target: T4, gp120 IIIB; experiment: as above
Description: as §1, §2

gp120 SF2 [11] = molecular target: T2, gp120 SF2; experiment: fluorescence anisotropy, ratio of the Kd values of Table I (lower end falls on SF2)
BaL virus envelope [12] = molecular target: BaL virus envelope (HIV-1 groupM); experiment: cell-based or functional assay
[13] = molecular target: SF162 pseudovirus envelope (HIV-1, UniProt P19550 32-847); experiment: cell-based or functional assay
[14] = molecular target: VI829 pseudovirus envelope (HIV-1); experiment: cell-based or functional assay
[15] = molecular target: VI1358 pseudovirus envelope (HIV-1); experiment: cell-based or functional assay
MJ4 pseudovirus envelope = MJ4 pseudovirus envelope (HIV-1); experiment: cell-based or functional assay
[16] = molecular target: CA10-3 pseudovirus envelope (HIV-1); experiment: cell-based or functional assay
Mn pseudovirus envelope = Mn pseudovirus envelope (HIV-1, UniProt P05877 32-856); experiment: cell-based or functional assay
gp120SF162 [17] = molecular target: T1, gp120SF162; experiment: competitive ELISA, IC50 values of Table III (largest ratio falls on gp120SF162)
Description: Competition binding assays in ELISA were performed in 96-wells plates (MAXISORB). Briefly, 50 ng per well of antibody D7324 (AALTO BIO REAGENTS) were coated overnight at 4° C.

BaL virus envelope [18] = molecular target: BaL virus envelope (HIV-1 groupM); experiment: cell-based or functional assay; remark: listed apart in the source
[19] = molecular target: HIV-1 isolate 6393 envelope (HIV-1); experiment: cell-based or functional assay
[20] = molecular target: HIV-1 isolate 714 envelope (HIV-1); experiment: cell-based or functional assay

Binder | IC50, acute HIV-1 infection of PM1 cells (p24, day 5) [1] | IC50, HIV-1 infection of PBMC (p24, day 12) (NL4.3 env) | IC50 (read off the curve) (gp120SF162 [2]) | EC50, single-cycle HIV-1 pseudovirus infection of GHOST cells (luciferase) (BaL virus envelope [12]) | EC50, single-cycle HIV-1 pseudovirus infection of GHOST cells (luciferase) [13] | EC50, single-cycle HIV-1 pseudovirus infection of GHOST cells (luciferase) [14] | EC50, single-cycle HIV-1 pseudovirus infection of GHOST cells (luciferase) [15] | EC50, single-cycle HIV-1 pseudovirus infection of GHOST cells (luciferase) (MJ4 pseudovirus envelope) | EC50, single-cycle HIV-1 pseudovirus infection of GHOST cells (luciferase) [16] | EC50, single-cycle HIV-1 pseudovirus infection of GHOST cells (luciferase) (Mn pseudovirus envelope) | further results
XNLHFCQLRCKSLGLLGRCAXTFCACV (not fully specified; N-terminal thiopropionic acid (TPA) at position 1; (D)Pro at 21; C-terminal amide; Lys11 carries a mercapto group ligated to a maleimido group of a polylysine construct with 100 Å PEGylated linkers, dimer of CD4M48-SH on a polylysine construct) [CD4M48D100] | 3 nM | < 1.8 nM | ~2 nM |  |  |  |  |  |  |  | 
XNLHFCQLRCKSLGLLGRCAXTXCACV (not fully specified; N-terminal thiopropionic acid (TPA) at position 1; (D)Pro at 21; biphenylalanine (Bip) at 23; C-terminal amide; Alexa-488 on Lys11, also called CD4M47-F; CD4M47-F1) [Alexa labeled mini-protein CD4M47] |  |  |  |  |  |  |  |  |  |  | EC50 (read off the curve) (gp120 SF2 [3]): ~0.3 nM; EC50 (read off the curve) (gp120SF162 [4]): ~0.3 nM; EC50 (read off the curve) (gp120 Bal [5]): ~1 nM; EC50 (read off the curve) (gp120 IIIB [6]): ~0.9 nM; EC50 (read off the curve) (gp120YU2): ~3 nM; fold improvement of affinity over CD4M33 (gp120 Bal [7]): 5.2 to 12.3 fold; fold improvement of affinity over CD4M33 (gp120SF162 [8]): 5.2 to 12.3 fold; Kd (gp120 Bal [9]): 1.22 nM; Kd (gp120 IIIB [10]): 0.589 nM
XNLHFCQLRCKSLGLLGRCAXTFCACV (not fully specified; N-terminal thiopropionic acid (TPA) at position 1; (D)Pro at 21; C-terminal amide; Alexa-488 on Lys11, also called CD4M48-F1; Alexa 488-labeled CD4M48) [Alexa labeled mini-protein CD4M48] |  |  |  |  |  |  |  |  |  |  | factor by which the Kd is smaller than that of CD4M33 (gp120 SF2 [11]): 1.1 fold; factor by which the Kd is smaller than that of CD4M33 (gp120SF162 [8]): 6.1 fold; Kd (gp120 Bal [9]): 5.46 nM; Kd (gp120 IIIB [10]): 0.982 nM
XNLHFCQLRCKSLGLLGRCAXTFCACV (not fully specified; N-terminal thiopropionic acid (TPA) at position 1; (D)Pro at 21; C-terminal amide; Lys11 carries a mercapto group ligated to a maleimido group of a polylysine construct with 100 Å PEGylated linkers, tetramer of CD4M48-SH on a polylysine construct) [CD4M48T100] | < 4 nM | 1.3 nM | ~2 nM |  |  |  |  |  |  |  | 
XNLHFCQLRCKSLGLLGRCAXTXCACV (not fully specified; N-terminal thiopropionic acid (TPA) at position 1; (D)Pro at 21; para-cyclo-pentylethoxyphenylalanine (U2) at 23; C-terminal amide) [CD4M48_U2] |  |  |  | 4 nM | 1.6 nM | 98 nM | 42 nM | 773 nM | 3.6 nM | 0.08 nM | fold enhanced affinity compared to CD4M47 (gp120SF162 [17]): ≤ 3 fold
XNLHFCQLRCKSLGLLGRCAXTXCACV (not fully specified; N-terminal thiopropionic acid (TPA) at position 1; (D)Pro at 21; Phe(para-[phenyl-ethoxy]) (U3) at 23; C-terminal amide) [CD4M48_U3] |  |  |  | 67 nM | 2 nM | 950 nM | 364 nM | > 3270 nM | 29 nM | 0.13 nM | 
XNLHFCQLRCKSLGLLGKCAGSXCACV (not fully specified; biphenylalanine (Bip) at 23; Alexa-488 on Lys11) [Alexa labeled mini-protein CD4M33] |  |  |  |  |  |  |  |  |  |  | Kd (gp120 Bal [9]): 6.36 nM; Kd (gp120 IIIB [10]): 3.81 nM
XNLHFCQLRCKSLGLLGRCAXTFCACV (not fully specified; N-terminal thiopropionic acid (TPA) at position 1; (D)Pro at 21; C-terminal amide; Lys11 carries a mercapto group ligated to a maleimido group of a polylysine construct with 50 Å PEGylated linkers, dimer of CD4M48-SH on a polylysine construct) [CD4M48D50] |  |  | ~1 nM |  |  |  |  |  |  |  | 
XNLHFCQLRCKSLGLLGRCAXTXCACV (not fully specified; N-terminal thiopropionic acid (TPA) at position 1; (D)Pro at 21; para-cyclo-hexylmethoxyphenylalanine (U1) at 23; C-terminal amide) [CD4M48_U1] |  |  |  | 2 nM | 0.65 nM | 11 nM | 5 nM | 87 nM | 0.3 nM | 0.07 nM | 
XNLHFCQLRCKSLGLLGRCAXTXCACV (not fully specified; N-terminal thiopropionic acid (TPA) at position 1; (D)Pro at 21; biphenylalanine (Bip) at 23; C-terminal amide) [CD4M47] |  |  |  | 108 nM | 22 nM | 1200 nM | 579 nM | > 3410 nM | 91 nM | 1 nM | 
XNLHFCQLRCKSLGLLGRCAXTFCACV (not fully specified; N-terminal thiopropionic acid (TPA) at position 1; (D)Pro at 21; C-terminal amide; Lys11 carries a mercapto group ligated to a maleimido group of a polylysine construct with 50 Å PEGylated linkers, tetramer of CD4M48-SH on a polylysine construct) [CD4M48T50] |  |  | ~1 nM |  |  |  |  |  |  |  | 
XNLHFCQLRCKSLGLLGRCAXTFCACV (not fully specified; N-terminal thiopropionic acid (TPA) at position 1; (D)Pro at 21; C-terminal amide, optimized mini-protein, Phe at 23; unlabelled monomer; also called B4T) [CD4M48] | 250 nM | 0.44 nM | ~3 nM | 77 nM | 5 nM | 755 nM | 57 nM | > 3300 nM | 63 nM | 4 nM | IC50, acute HIV-1 infection of PM1 cells (p24, day 5) (BaL virus envelope [18]): 185 nM; IC50, acute HIV-1 infection of PM1 cells (p24, day 5) [19]: 95 nM; IC50, acute HIV-1 infection of PM1 cells (p24, day 5) [20]: 670 nM; IC50, HIV-1 infection of MT-4 cells (MTS viability, day 5) (NL4.3 env): 2.6 nM
XNLHFCQLRCKSLGLLGRCAXTFCACV (not fully specified; N-terminal thiopropionic acid (TPA) at position 1; (D)Pro at 21; C-terminal amide; Lys11 carries a hydrazino group ligated to heparin mono-aldehyde) [CD4M48-heparin] | < 4 nM | < 80 nM |  |  |  |  |  |  |  |  | IC50, acute HIV-1 infection of PM1 cells (p24, day 5) (BaL virus envelope [18]): 850 nM; IC50, HIV-1 infection of MT-4 cells (MTS viability, day 5) (NL4.3 env): 112 nM
